Drawing on paper PMC11694511, this text covers Kd for two substances.

For assay [1], the target named is LolA from Porphyromonas gingivalis (P. gingivalis). As to the kind of experiment: ITC. Background: Isothermal titration calorimetry measures the heat released or taken up as one component is titrated into another.
Assay [2] concerns the target LolA from Vibrio cholerae (V. cholerae) (UniProt A5F2G9). The assay can be described thus: ITC.

In general, Kd refers to the concentration at which binding is half-saturated. Lower therefore signals a tighter complex.

With colistin (peptide), the Kd worked out at 33 µM in assay [1] and 91 µM in assay [2].

For polymyxin B (peptide), the Kd in assay [2] stood at 56 µM.
